Consider 11 molecules from patent US20230381333A1 (HANMI PHARM, published 2023).

Bridge positions count the residues as written; N and C are the ends. Square brackets hold non-standard residues; d marks the D form. Ends that are not written are not given here. * marks the point of attachment. Acetyl(2-(4-imidazolyl)) = O=C(Cc1c[nH]cn1)*; Aib = CC(C)(N)C(=O)O Some results are limits rather than exact numbers.

Assay in all cases: cell-based or functional assay
The target of one assay is T1, human GIP receptor (human, UniProt P48546 22-466).
T1 sequence (looked up): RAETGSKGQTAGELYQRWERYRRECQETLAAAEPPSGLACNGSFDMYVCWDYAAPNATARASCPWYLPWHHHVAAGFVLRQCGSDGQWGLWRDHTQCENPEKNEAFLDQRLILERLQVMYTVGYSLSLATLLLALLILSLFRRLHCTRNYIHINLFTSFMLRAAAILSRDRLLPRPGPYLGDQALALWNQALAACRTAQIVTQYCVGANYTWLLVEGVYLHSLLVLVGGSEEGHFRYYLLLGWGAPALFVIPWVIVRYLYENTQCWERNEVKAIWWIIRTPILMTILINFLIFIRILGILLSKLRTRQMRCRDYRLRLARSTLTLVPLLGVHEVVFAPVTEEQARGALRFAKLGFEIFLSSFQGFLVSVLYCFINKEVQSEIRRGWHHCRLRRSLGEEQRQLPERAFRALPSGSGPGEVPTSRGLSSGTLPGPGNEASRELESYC

The target of a further assay is human GCG receptor (human, UniProt P47871 26-477).
human GCG receptor, sequence (P47871 26-477): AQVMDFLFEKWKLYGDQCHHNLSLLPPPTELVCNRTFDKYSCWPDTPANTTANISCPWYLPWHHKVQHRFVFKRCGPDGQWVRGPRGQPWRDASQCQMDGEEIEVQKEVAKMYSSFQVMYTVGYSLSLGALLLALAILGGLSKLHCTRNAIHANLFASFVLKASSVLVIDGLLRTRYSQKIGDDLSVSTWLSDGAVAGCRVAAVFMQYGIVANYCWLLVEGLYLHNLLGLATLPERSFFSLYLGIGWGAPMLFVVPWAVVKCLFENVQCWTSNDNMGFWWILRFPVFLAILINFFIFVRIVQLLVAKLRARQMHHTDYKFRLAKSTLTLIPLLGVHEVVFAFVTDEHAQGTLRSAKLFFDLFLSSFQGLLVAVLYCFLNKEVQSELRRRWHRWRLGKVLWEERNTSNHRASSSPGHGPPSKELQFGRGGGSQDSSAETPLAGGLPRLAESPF
The next assay deals with human GLP-1 receptor (human, UniProt P43220 24-463).

B1: triple agonist of SEQ ID NO: 64 (peptide)
peptide: Y[Aib]QGTFTSDYSKYLDECAAKEFVQWLLDHHPSSGQPPPS
modifications: bridge 16-20
With B1, the “In vitro activity compared to native-type peptide (%), vs GIP” value (shortened to “In vitro activity … (%), vs GIP”) with human GIP receptor was 92.9%. For the same molecule, the “In vitro activity compared to native-type peptide (%), vs Glucagon” value (“In vitro activity … (%), vs Glucagon” for short) with human GCG receptor was 60.1%. The “In vitro activity compared to native-type peptide (%), vs GLP-1” value (“In vitro activity … (%), vs GLP-1” for short) with human GLP-1 receptor amounted to 64.6%.

B2: triple agonist of SEQ ID NO: 58 (peptide)
peptide: H[Aib]QGTFTSDYSKYLDEKRQKEFVQWLLNTKC
modifications: bridge 16-20
On to B2, for which the “In vitro activity … (%), vs GIP” value in the assay with human GIP receptor turned out to be 0.2%. In the assay with human GCG receptor, the “In vitro activity … (%), vs Glucagon” value came to 2.6%. The “In vitro activity … (%), vs GLP-1” value in the assay with human GLP-1 receptor is 39.1%.

B3: triple agonist of SEQ ID NO: 60 (peptide)
peptide: {Acetyl(2-(4-imidazolyl))}-[Aib]QGTFTSDYSIAMDEKHCKDFVNWLLNTK
modifications: bridge 15-19
For the molecule B3, in the assay with human GIP receptor, the “In vitro activity … (%), vs GIP” value was 8.2%. Besides, in the assay with human GCG receptor, the “In vitro activity … (%), vs Glucagon” value was less than 0.1%. Moreover, the “In vitro activity … (%), vs GLP-1” value in the assay with human GLP-1 receptor is 106%.

B4: triple agonist of SEQ ID NO: 61 (peptide)
peptide: {Acetyl(2-(4-imidazolyl))}-[Aib]QGTFTSDYSIAMDEIACKDFVNWLLNTK
modifications: bridge 15-19
Turning to B4, the “In vitro activity … (%), vs GIP” value with human GIP receptor was 2.8%. Besides, in the assay with human GCG receptor, the “In vitro activity … (%), vs Glucagon” value is less than 0.1%. Moreover, the “In vitro activity … (%), vs GLP-1” value with human GLP-1 receptor is 59.8%.

B5: triple agonist of SEQ ID NO: 66 (peptide)
peptide: Y[Aib]QGTFTSDYSKYLDECRAKDFVQWLLDHHPSSGQPPPS
modifications: bridge 16-20
Turning to B5, the “In vitro activity … (%), vs GIP” value with human GIP receptor worked out at 17.2%. Further, in the assay with human GCG receptor, the “In vitro activity … (%), vs Glucagon” value is 172%. The “In vitro activity … (%), vs GLP-1” value with human GLP-1 receptor stood at 15.8%.

B6: triple agonist of SEQ ID NO: 57 (peptide)
peptide: H[Aib]QGTFTSDYSIAMDEIHQKDFVNWLLNTC
modifications: bridge 16-20
With B6, in the assay with human GIP receptor, the “In vitro activity … (%), vs GIP” value is 0.3%. Also, the “In vitro activity … (%), vs Glucagon” value in the assay with human GCG receptor is less than 0.1%. Besides, the “In vitro activity … (%), vs GLP-1” value with human GLP-1 receptor worked out at 11.7%.

B7: triple agonist of SEQ ID NO: 63 (peptide)
peptide: {Acetyl(2-(4-imidazolyl))}-[Aib]QGTFTSDCSKYLDERAAQDFVQWLLDGGPSSGAPPPS
In the case of B7, the “In vitro activity … (%), vs GIP” value with human GIP receptor is less than 0.1%. In addition, the “In vitro activity … (%), vs Glucagon” value with human GCG receptor is less than 0.1%. Further, the “In vitro activity … (%), vs GLP-1” value with human GLP-1 receptor was 15.3%.

B8: triple agonist of SEQ ID NO: 7 (peptide)
peptide: H[Aib]QGTFTSDVSKYLDGQAAKEFVAWLLKGC
On to B8, for which, in the assay with human GIP receptor, the “In vitro activity … (%), vs GIP” value is less than 0.1%. In the assay with human GCG receptor, the “In vitro activity … (%), vs Glucagon” value is less than 0.1%. The “In vitro activity … (%), vs GLP-1” value in the assay with human GLP-1 receptor came to 13.7%.

B9: triple agonist of SEQ ID NO: 59 (peptide)
peptide: {Acetyl(2-(4-imidazolyl))}-[Aib]QGTFTSDYSICMDEKHQKDFVNWLLNTK
modifications: bridge 15-19
For B9, the “In vitro activity … (%), vs GIP” value in the assay with human GIP receptor is 4%. Moreover, the “In vitro activity … (%), vs Glucagon” value with human GCG receptor was less than 0.1%. Besides, the “In vitro activity … (%), vs GLP-1” value in the assay with human GLP-1 receptor was 40.3%.

B10: triple agonist of SEQ ID NO: 62 (peptide)
peptide: {Acetyl(2-(4-imidazolyl))}-[Aib]QGTFTSDKSKYLDERAAQDFVQWLLDGGPSSGAPPPS
Take B10: the “In vitro activity … (%), vs GIP” value with human GIP receptor is less than 0.1%. For the same molecule, the “In vitro activity … (%), vs Glucagon” value with human GCG receptor is less than 0.1%. Also, in the assay with human GLP-1 receptor, the “In vitro activity … (%), vs GLP-1” value was 5.2%.

B11: triple agonist of SEQ ID NO: 65 (peptide)
peptide: H[Aib]QGTFTSDYSKCLDEKRAKEFVQWLLDHHPSSGQPPPS
modifications: bridge 16-20
Regarding B11, the “In vitro activity … (%), vs GIP” value with human GIP receptor came to 11.6%. The “In vitro activity … (%), vs Glucagon” value with human GCG receptor amounted to 25.2%. The “In vitro activity … (%), vs GLP-1” value with human GLP-1 receptor stood at 95.4%.
